The target in assay [1] is T1, human PVRIG on FlpinCHO-PVRIG cells (human, UniProt Q6DKI7 41-326).
T1 construct: whole, on cells; also called FlpinCHO-hPVRIG; FlpinCHO-human PVRIG
T1 sequence (looked up): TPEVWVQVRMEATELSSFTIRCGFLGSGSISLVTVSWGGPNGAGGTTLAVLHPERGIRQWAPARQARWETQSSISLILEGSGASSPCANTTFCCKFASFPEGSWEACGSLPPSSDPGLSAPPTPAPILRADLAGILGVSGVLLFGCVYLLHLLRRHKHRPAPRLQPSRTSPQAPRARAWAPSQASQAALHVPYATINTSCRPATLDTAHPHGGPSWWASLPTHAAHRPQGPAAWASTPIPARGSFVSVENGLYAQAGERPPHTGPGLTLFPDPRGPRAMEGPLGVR
Nature of the assay: FACS, FlpinCHO-PVRIG cells. On the procedure:
After discarding the cell culture medium, the cells were rinsed with PBS and digested for 8-10 minutes by adding 1 mL Versene (Gibico, 15040-066). The Ham's F12 (Gibico, 21127-022) complete medium containing 10% FBS was then added to terminate the digestion and acquire cell suspension. After counting with a cell counter (Beckman Coulter, Vi-CELL), an appropriate amount of cell suspension was centrifuged at 350×g to remove the supernatant, washed twice with PBS, stained with Zombie violet (Biolegend, 423114) and incubated at room temperature for 20 minutes. After incubation, the cells were added with staining buffer (2% FBS+PBS) to stop staining, centrifuged at 350×g to remove the supernatant, washed twice and resuspended with staining buffer to a density of 2×10⁶ cells/mL. The cells were plated into a 96-well plate (50 μL of cell suspension per well) for further use. The antibodies were diluted from the highest concentration of 46 nM (two-fold concentration) with staining buffer by 3.3-fold serial dilution. The diluted antibodies were added to the well containing 50 μL of cell suspension. The plate was placed on a microplate shaker at 400 rpm for 1 minute to fully mix the antibodies and cells, and then incubated at 4° C. for 30 minutes. After the incubation, the cells were washed twice with staining buffer (200 μL per well) and centrifuged at 350×g for 5 minutes to discard the supernatant. The PE goat anti-human IgG Fc antibody (ebioscience, 12-4998-82) was diluted 250 times with staining buffer, added into the washed wells (100 μL per well), mixed well, and stained at 4° C. for 30 minutes. After staining, the cells were washed twice with staining buffer, finally resuspended with 200 μL staining buffer and analyzed by flow cytometry (BD, Canto II). The stronger the signal, the stronger the ability of the antibodies binds to PVRIG. An antibody binding curve was drawn with concentration of antibodies as the abscissa and the corresponding Mean Fluorescence Intensity (MFI) as the ordinate. The AUC value of the curve was calculated by using a Four Parameter Logistic Fit (GraphPadPrism9).

Assay [2] addresses T2, human PVRIG-mFc protein (Acro, PVG-H5253) (human, UniProt Q6DKI7 41-171, limits assumed).
T2 construct: bought reagent; also called PVRIG-ECD-mFc
T2 sequence (looked up): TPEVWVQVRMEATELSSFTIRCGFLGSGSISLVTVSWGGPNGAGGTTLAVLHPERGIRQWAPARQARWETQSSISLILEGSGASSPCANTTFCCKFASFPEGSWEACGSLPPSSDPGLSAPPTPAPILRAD
The assay can be described thus: competition FACS; blocked: human PVRIG-mFc binding to CHO-K1-CD112 cells. The essentials:
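Antibody dilutions premixed with human PVRIG-mFc (working solution 1 μg/mL, four-fold concentration) for 30 min at 4° C, then incubated with CHO-K1-CD112 cells 30 min at 4° C. Bound PVRIG-mFc detected by PE anti-mouse IgG Fc flow cytometry; IC50 and AUC from four-parameter fit of MFI versus antibody concentration.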

The target of assay [3] is T3, human PVRIG-his (AcroBiosystems, Cat NO. PVG-H52H4) (human, UniProt Q6DKI7 41-171, limits assumed).
T3 construct: treated as the same protein; also called human PVRIG-His protein; Human PVRIG-His, Acro C227P1-9ARF1-T4
T3 sequence (looked up): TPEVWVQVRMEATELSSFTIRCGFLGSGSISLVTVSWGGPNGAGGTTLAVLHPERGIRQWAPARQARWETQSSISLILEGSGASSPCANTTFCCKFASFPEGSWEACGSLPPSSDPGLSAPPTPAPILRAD
Nature of the assay: competition ELISA on coated human PVRIG-his; blocked ligand human PVRL2-mFc. The essentials:
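Wells were coated with 0.5 μg/mL human PVRIG-his. Bound ligand was read by HRP/TMB absorbance, and IC50 came from a four-parameter logistic fit of OD against antibody concentration.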

Assay [4] addresses T3, human PVRIG-his (AcroBiosystems, Cat …). The description is as above. On the procedure:
The ELISA plate was pre-coated with 100 μL/well of 0.5 μg/mL human PVRIG-his protein (AcroBiosystems, Cat NO. PVG-H52H4). The tested anti-PVRIG antibodies were diluted from the highest concentration of 16 nM (two-fold concentration). The diluted antibodies were mixed with 18 ng/ml human PVRL2-mFc (AcroBiosystems, Cat NO. CD2-H5257) in equal volume, added into the plate (100 μL/well), and incubated with shaking at room temperature for 2.0 hours. […] A HRP substrate, TMB (Thermo, Cat NO. 34029) was added into wells after washing the plate again for color development. After adding a termination solution to terminate the reaction, the absorbance value was read by a microplate reader (MD i3×). An inhibiting curve was drawn with concentration of antibodies as the abscissa and the corresponding OD value as the ordinate. The IC50 value was calculated by using a Four Parameter Logistic Fit (GraphPadPrism9). The smaller the IC50 value, the stronger the ability of the antibodies inhibits the binding between PVRIG and PVRL2. The positive and negative controls are the same as in Example 8.
The methods refer to Example 11. The inhibiting activity of the humanized antibodies was normalized to the corresponding parental antibodies. If the percentage value is higher than 100%, the inhibiting effect of humanized antibodies is better than that of parental antibodies.
The source holds these as a separate data set.

Assay [5] deals with T2, human PVRIG-mFc protein (Acro, …). Nature of the assay: competition FACS; blocked: PVRIG-mFc binding to CHO-K1 CD112 cells. Here is the method:
The Ham's F12 (Gibico, 21127-022) complete medium containing 10% FBS was then added to stop the digestion and acquire cell suspension. After counting with a cell counter (Beckman Coulter, Vi-CELL), an appropriate amount of cell suspension was centrifuged at 350×g to remove the supernatant, washed twice with PBS, stained with Zombie violet (Biolegend, 423114) and incubated at room temperature for 20 minutes. After incubation, the cells were added with staining buffer (2% FBS+PBS) to stop staining, centrifuged at 350×g to remove the supernatant, washed twice and resuspended with staining buffer to a density of 2×10⁶ cells/mL. The cells were plated into a 96-well plate (50 μL of cell suspension per well) for further use. A working solution of human PVRIG-mFc protein (Acro, PVG-H5253) prepared with staining buffer, 1 μg/mL (four-fold concentration), was added into a 96-well plate (50 μL PVRIG-mFc working solution per well). […] The diluted antibodies were added to the well containing 50 μL of PVRIG-mFc. The plate was placed on a microplate shaker at 400 rpm for 1 minute to fully mix the antibodies and PVRIG-mFc proteins, and then incubated at 4° C. for 30 minutes. After the incubation, the cell suspension prepared above (100 μL) was added into the wells, gently mixed with the pipette tip and incubated at 4° C. for 30 minutes. After the incubation, the cells were washed twice with staining buffer (200 μL per well) and centrifuged at 350×g for 5 minutes to discard the supernatant. The PE goat anti-mouse IgG Fc antibody (Biolegend, 405337) was diluted 250 times with staining buffer, added into the washed wells (100 μL per well), mixed well, and stained at 4° C. for 30 minutes. After staining, the cells were washed twice with staining buffer, finally resuspended with 200 μL staining buffer and analyzed by flow cytometry (BD, Canto II). The weaker the fluorescence signal, the stronger the ability of the antibodies blocks the binding of CHO-K1 human CD112 cells to the PVRIG-mFc protein.

The target in assay [6] is T3, human PVRIG-his (AcroBiosystems, Cat …). Nature of the assay: ELISA, coated human PVRIG-his. Here is the method:
(§1) The ELISA plate was pre-coated with 100 μL/well of 0.5 μg/mL human PVRIG-his (AcroBiosystems, Cat NO. PVG-H52H4) or cynomolgus monkey PVRIG (Novoprotein, Cat NO. C09B). […] A HRP substrate, TMB (Thermo, Cat NO. 34029) was added into wells after washing the plate again for color development. After adding a termination solution to terminate the reaction, the absorbance value was read by a microplate reader (MD i3×). An antibody binding curve was drawn with concentration of antibodies as the abscissa and the corresponding OD value as the ordinate. The EC50 value was calculated by using a Four Parameter Logistic Fit (GraphPadPrism9). The smaller the EC50 value, the stronger the ability of the antibodies binds to human or cynomolgus monkey PVRIG. The positive control antibodies are COM701-hIgG1 (Patent No.:US20180244774A1), COM701-hIgG4 (patent No.: US20180244774A1) and SRF813-hIgG1 (Patent No.:US20200040081A1); and the negative control antibodies are anti-HA HcAb-hIgG1 (Chengdu NB Biolab, Cat NO. NBR022), anti-CD38 HcAb-hIgG1 (in-house) and anti-Fluorescein-hIgG1 (in house).

Assay [7] concerns the target T4, cynomolgus monkey PVRIG (Novoprotein, Cat NO. C09B) (cynomolgus monkey, UniProt A0A2K5WVV8 41-171).
T4 construct: bought reagent; also called cynomolgus monkey PVRIG recombinant protein
T4 sequence: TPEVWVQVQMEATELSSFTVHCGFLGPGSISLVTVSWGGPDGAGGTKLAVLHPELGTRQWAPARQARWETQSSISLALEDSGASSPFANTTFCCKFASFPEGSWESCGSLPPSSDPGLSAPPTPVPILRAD
The assay can be described thus: ELISA, coated cynomolgus monkey PVRIG. On the procedure: as §1

In assay [8] the target is T2, human PVRIG-mFc protein (Acro, …). The assay can be described thus: competition FACS; blocked: human PVRIG-mFc binding to CHO-K1-CD112 cells. The essentials: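 In this competition flow cytometry assay, the IC50 was taken from the curve of mean fluorescence intensity against antibody dilution. Antibodies and human PVRIG-mFc were premixed at 4° C for 30 min, then incubated with Zombie violet-stained CHO-K1-CD112 cells for 30 min at 4° C. PE goat anti-mouse IgG Fc (1:250) detected bound PVRIG-mFc on a BD Canto II.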
This is another data set of the same source.

“And” between values parts separate entries of the source, which are not always exact repeats. Equal entries are not always repeated. Where two headings read alike, the source gives them in different places.

B1: PVRIG-A50 (VHH)
VHH: EVQLVESGGGLVQPGGSLRLSCAASGFTFSYYDMSWVRQAPGKGLEWVSTINSNGGRTSYVDSVKGRFTISRDNTKNTLYLQMNSLKPEDTAVYYCVEGDPHNFGLENLSLRDFGSWGQGTQVTVSS
notes: tested as VHH-hinge-CH2-CH3 (human IgG1-Fc); not shown: human IgG1 hinge-CH2-CH3
B1: the “EC50 (read off the curve)” value in assay [1] was approximately 0.7 nM. For the same molecule, the “IC50 (read off the curve)” value in assay [2] was approximately 0.7 nM; in assay [3], approximately 2 nM; in assay [4], ~0.8 nM and ~1 nM.

B2: PVRIG-A50-H1b (VHH)
VHH: EVQLVESGGGLVQPGGSLRLSCAASGFTFSYYDMSWVRQAPGKGLEWVSTINSDGGRTSYVDSVKGRFTISRDNSKNTLYLQMNSLRAEDTAVYYCVEGDPHNFGLESLSLRDFGSWGQGTMVTVSS
notes: humanized VHH; also called A50.VH1b
Regarding B2, the “IC50 (read off the curve)” value in assay [5] is approximately 1 nM.

B3: COM701-hIgG4 (antibody, V domains shown)
VH: QVQLVQSGAEVKKPGASVKVSCKASGYTFTDYNINWVRQAPGQGLEWMGYIYPYIGGSGYAQKFQGRVTMTRDTSTSTVYMELSSLRSEDTAVYYCAREDKTARNAMDYWGQGTLVTVSS
VL: DIQMTQSPSSLSASVGDRVTITCRVSENIYSNLAWYQQKPGKAPKLLIYEATNLAEGVPSRFSGSGSGTDFTLTISSLQPEDFATYYCQHFWGTPYTFGQGTKLEIK
notes: anti-PVRIG positive control
As to B3, the “EC50 (read off the curve)” value in assay [6] is approximately 0.3 nM; in assay [7], approximately 0.1 nM. Further, the “IC50 (read off the curve)” value in assay [5] is approximately 0.7 nM; in assay [2] it was approximately 0.8 nM; in assay [3], approximately 0.8 nM; in assay [8] it was approximately 0.9 nM.

B4: PVRIG-A118 (VHH)
VHH: QVQLVESGGGLVQAGGSLRLSCAASETYFDLYVMGWYRQAPGKDRELVATITYTGSIKIVDSVKDRFTISRGDAKNTVSLQMSSLKPEDTAVYFCNADPSGLGRKVYWGQGTQVTVSS
notes: as for B1
B4: the half-maximal effective concentration (EC50 (read off the curve)) in assay [1] is approximately 0.2 nM. The “IC50 (read off the curve)” value in assay [2] is approximately 1 nM; in assay [3] it was approximately 0.6 nM; in assay [4], approximately 0.6 nM.

These data come from US20240343803A1 (SHANDONG SIMCERE BIOPHARMACEUTICAL, published 2024).
